{"source": "paper PMC7241556"}
{"system": "T1, Rsp (Staphylococcus aureus NCTC8325), ORF:0cc986df", "T1 sequence": "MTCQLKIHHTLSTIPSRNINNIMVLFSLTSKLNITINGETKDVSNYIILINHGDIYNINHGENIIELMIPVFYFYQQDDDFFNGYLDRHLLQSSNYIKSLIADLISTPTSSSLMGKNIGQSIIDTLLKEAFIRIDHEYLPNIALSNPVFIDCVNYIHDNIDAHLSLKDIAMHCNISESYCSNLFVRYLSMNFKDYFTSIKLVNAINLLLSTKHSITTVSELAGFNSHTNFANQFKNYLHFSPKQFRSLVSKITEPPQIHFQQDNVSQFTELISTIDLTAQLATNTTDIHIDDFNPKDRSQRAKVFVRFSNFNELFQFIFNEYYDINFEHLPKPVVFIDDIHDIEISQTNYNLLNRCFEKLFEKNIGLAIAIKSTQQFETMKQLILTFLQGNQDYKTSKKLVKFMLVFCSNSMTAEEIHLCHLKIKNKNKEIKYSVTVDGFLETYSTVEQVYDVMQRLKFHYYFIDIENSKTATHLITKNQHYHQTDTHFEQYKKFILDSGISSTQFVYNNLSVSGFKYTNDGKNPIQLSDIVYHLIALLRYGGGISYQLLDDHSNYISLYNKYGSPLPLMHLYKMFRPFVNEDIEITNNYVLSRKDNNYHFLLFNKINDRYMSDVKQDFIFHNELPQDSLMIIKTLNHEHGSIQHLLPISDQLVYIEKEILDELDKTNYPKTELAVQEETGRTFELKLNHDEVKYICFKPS", "test": "EMSA"}
{"sequence": "ACTTAAATACGAATTCAGGCAACTTAATTGTGTTAAATACAGTTTTGAATGCCTAACTGTATTTCTTTTCTCTTTAAAATACAGTTAAGTACATTATAAGATGTTGTGCGGATAAACAAACTAATTGCATCAAATTTATTTTAAAATAACAACAACAAAACGTTAAGCGAATAACATTTCGGTGATTTAAAAGCTACGCACGTTTTTGTTATCTTCAAATTTAAATTTTAAGGAGTGTTTTCAATGGAAGGTT (double strand) [psmβ promoter 253 bp]", "binding": "binds"}
{"sequence": "TGATTTTAAAAATTTCCATGTTTTACATTTAAATGATAGATTTCAATATATATTAGGCAGGAGAGAGAAATATGACATGCCAACTTAAA (double strand) [rsp promoter 89 bp]", "binding": "no binding"}
{"sequence": "AACCTTCCATTGAAAACACTCCTTAAAATTTAAATTTGAAGATAACAAAAACGTGCGTAGCTTTTAAATCACCGAAATGTTATTCGCTT (double strand) [psmβ promoter 89 bp]", "binding": "no binding"}
{"sequence": "TAGTGTTGTTGTTACTGAGCTGACTATACGTGTTTTCATTTTCATCATCCTTCTATTTTTTAAAACGATTTGAGGAAACAATAATCAATATGTCAATTTAGAATATTGCA (double strand) [hla promoter 110 bp]", "binding": "no binding"}
{"sequence": "GCCAGCGATGATACCCATTAAGATTACCTCCTTTGCTTATGAGTTAACTTCATTGTACATAGTTATCTTGTGCGTAATTGATTTT (double strand) [psmα promoter 85 bp]", "binding": "no binding"}
